Measurements: patent US20170247475A1 (Boehringer Ingelheim, published 2017)
Where two headings read alike, the source gives them in different places. One block for each binder: values may come before it.

Columns and labels:
[1] = molecular target: T1, hAng2; experiment: competition ELISA, blocking of hAng2 binding to hTie2
T1 construct: also called human Ang2
T1 chain: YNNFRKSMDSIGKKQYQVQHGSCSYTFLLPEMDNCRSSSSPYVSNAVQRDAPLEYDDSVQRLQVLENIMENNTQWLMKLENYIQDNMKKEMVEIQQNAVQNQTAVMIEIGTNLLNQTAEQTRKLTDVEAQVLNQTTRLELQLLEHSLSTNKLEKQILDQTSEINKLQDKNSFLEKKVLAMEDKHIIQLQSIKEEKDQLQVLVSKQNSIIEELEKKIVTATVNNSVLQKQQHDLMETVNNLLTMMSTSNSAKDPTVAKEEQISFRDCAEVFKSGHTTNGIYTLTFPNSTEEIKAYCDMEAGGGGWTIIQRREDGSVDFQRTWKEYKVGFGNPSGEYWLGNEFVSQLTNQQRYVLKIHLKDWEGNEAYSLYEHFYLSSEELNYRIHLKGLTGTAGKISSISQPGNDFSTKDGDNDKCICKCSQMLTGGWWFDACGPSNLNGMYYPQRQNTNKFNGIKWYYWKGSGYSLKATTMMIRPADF

[2] = molecular target: T2, mAng2; experiment: competition ELISA, blocking of mAng2 binding to mTie2
T2 construct: also called mouse Ang2
T2 chain: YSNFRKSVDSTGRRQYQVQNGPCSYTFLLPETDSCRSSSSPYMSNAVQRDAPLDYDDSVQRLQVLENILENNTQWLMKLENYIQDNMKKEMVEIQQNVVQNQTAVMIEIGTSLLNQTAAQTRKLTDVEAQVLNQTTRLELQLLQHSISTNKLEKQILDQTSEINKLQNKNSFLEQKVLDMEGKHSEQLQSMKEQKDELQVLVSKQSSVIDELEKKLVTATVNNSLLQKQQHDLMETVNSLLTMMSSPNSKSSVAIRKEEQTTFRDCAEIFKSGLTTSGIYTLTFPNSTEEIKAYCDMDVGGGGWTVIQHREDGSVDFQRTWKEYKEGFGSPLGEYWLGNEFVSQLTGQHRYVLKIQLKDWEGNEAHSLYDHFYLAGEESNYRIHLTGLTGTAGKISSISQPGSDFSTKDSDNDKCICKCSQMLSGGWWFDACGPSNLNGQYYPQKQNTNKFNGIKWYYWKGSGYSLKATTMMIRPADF

[3] = molecular target: T3, cAng2 (cynomolgus monkey); experiment: competition ELISA, blocking of cAng2 binding to cTie2
T3 construct: also called cyno Ang2

[4] = molecular target: T1, hAng2; experiment: competition ELISA, blocking of hAng2 binding to hTie2
[5] = molecular target: T2, mAng2; experiment: competition ELISA, blocking of mAng2 binding to mTie2
[6] = molecular target: T3, cAng2; experiment: competition ELISA, blocking of cAng2 binding to cTie2; remark: listed apart in the source
[7] = molecular target: T4, human VEGFR2-Fc chimera (human, UniProt P35968 20-764); experiment: binding ELISA on coated human VEGF121
T4 construct: bought (R&D Systems); also called hVEGFR2-Fc; VEGFR2-huFc
Experimental: Binding to recombinant human VEGF121 is assessed via a solid phase binding ELISA. Briefly, recombinant human VEGF121 (R&D Systems, Minneapolis, Minn., USA) is coated overnight at 4° C. at 1 μg/mL in a 96-well MaxiSorp plate (Nunc, Wiesbaden, Germany). Wells are blocked with a casein solution (1% in PBS).

[8] = molecular target: T5, recombinant human VEGF165 (human, UniProt P15692-4 27-191); experiment: Biacore on VEGF165 (see Example 5.5)
T5 construct: also called hVEGF165; rhVEGF165
Experimental: Samples are injected for 2 min and allowed to dissociate up to 20 min at a flow rate of 45 μI/min. In between sample injections, the chip surface is regenerated with 100 mM HCl. HBS-EP+(Hepes buffer pH7.4+EDTA) is used as running buffer. Binding curves are fitted using a Two State Reaction model by Biacore T100 Evaluation Software v2.0.1.
Affinity of VEGFBII032 is determined by Biacore (see Example 5.5) and the melting temperature is determined in the thermal shift assay as described above.

[9] = molecular target: T5, recombinant human VEGF165; experiment: ProteOn, periplasmic extract 1/10 on hVEGF165 chip
Source text: One additional variant is constructed in which the potential oxidation site at position M30 (CDR1 region, see FIG. 19 indicated as bold italic residue) is removed by introduction of a M30I mutation.

[10] = molecular target: T6, hAng2; experiment: competition ELISA hAng2/hTie2-Fc; blocked: hTie2-Fc
T6 construct: also called human Ang2
T6 chain: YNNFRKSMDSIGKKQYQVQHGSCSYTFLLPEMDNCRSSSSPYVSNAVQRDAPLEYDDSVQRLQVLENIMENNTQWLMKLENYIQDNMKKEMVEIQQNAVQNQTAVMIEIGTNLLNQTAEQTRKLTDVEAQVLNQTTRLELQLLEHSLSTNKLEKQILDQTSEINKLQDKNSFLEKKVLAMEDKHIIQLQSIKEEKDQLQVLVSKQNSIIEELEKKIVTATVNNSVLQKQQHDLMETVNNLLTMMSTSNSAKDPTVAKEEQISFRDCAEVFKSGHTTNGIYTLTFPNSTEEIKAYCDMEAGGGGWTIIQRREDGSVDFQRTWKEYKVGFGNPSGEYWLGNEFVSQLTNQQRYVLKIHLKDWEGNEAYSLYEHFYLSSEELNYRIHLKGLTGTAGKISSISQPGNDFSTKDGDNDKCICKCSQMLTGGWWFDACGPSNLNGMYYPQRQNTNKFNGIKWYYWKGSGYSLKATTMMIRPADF
Experimental: The human assay is also performed after incubation of the VHH with 0.5 μM human serum albumin. Additionally, a hAng2 mediated HUVEC survival assay is performed (see Example 5.5; FIG. 29).

T5 sequence (P15692 other isoform, or with tags, fused parts or gaps limits assumed): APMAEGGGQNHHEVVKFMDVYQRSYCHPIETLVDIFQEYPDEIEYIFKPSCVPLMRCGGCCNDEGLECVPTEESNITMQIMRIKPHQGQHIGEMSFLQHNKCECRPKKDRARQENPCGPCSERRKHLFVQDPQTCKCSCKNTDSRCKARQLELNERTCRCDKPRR
T4 sequence (P35968 20-764, change not shown): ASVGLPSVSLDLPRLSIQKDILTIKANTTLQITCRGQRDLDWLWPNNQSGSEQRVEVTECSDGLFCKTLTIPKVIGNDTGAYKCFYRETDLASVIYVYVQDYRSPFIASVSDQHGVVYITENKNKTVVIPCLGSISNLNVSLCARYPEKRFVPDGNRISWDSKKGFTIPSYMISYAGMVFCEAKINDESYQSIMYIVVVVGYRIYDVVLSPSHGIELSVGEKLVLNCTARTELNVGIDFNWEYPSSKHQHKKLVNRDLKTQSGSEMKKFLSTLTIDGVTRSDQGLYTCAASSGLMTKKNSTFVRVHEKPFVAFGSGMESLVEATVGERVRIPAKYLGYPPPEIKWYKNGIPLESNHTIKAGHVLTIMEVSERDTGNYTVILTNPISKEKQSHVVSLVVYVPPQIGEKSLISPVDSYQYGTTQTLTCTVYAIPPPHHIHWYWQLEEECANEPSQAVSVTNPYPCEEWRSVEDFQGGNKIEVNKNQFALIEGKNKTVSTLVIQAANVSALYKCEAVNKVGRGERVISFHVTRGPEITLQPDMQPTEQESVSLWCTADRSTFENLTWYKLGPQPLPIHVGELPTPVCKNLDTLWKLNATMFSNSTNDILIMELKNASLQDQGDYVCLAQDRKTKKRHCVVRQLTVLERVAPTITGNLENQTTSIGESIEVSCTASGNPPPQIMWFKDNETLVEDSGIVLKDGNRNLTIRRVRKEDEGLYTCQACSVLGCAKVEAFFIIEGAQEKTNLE

IC50 (read off the curve) [1]: ~0.02 nM
IC50 (read off the curve) [2]: ~0.03 nM
IC50 (read off the curve) [3]: ~0.03 nM
B1: ANGBII00006 (VHH)
bivalent VHH: EVQLVESGGGLVQPGGSLRLSCAASGITLDDYAIGWFRQAPGKEREGVSSIRDNGGSTYYADSVKGRFTISSDNSKNTVYLQMNSLRPEDTAVYYCAAVPAGRLRYGEQWYPIYEYDAWGQGTLVTVSSGGGGSGGGSEVQLLESGGGLVQPGGSLRLSCAASGITLDDYAIGWFRQAPGKEREGVSSIRDNGGSTYYADSVKGRFTISSDNSKNTVYLQMNSLRPEDTAVYYCAAVPAGRLRYGEQWYPIYEYDAWGQGTLVTVSS
notes: homodimeric anti-Ang2 VHH; also called 00908-9gs-00908

IC50 (read off the curve) [4]: ~0.01 nM
IC50 (read off the curve) [5]: ~0.02 nM
IC50 (read off the curve) [6]: ~0.03 nM
B2: ANGBII00001 (VHH)
bivalent VHH: EVQLVESGGGLVQAGGSLRLSCAASGFTFDDYALGWFRQAAGKEREGVSCIRCSDGSTYYADSVKGRFTISSDNAKNTVYLQMNSLKPEDTAVYYCAASIVPRSKLEPYEYDAWGQGTLVTVSSGGGGSGGGSEVQLVESGGGLVQAGGSLRLSCAASGFTFDDYALGWFRQAAGKEREGVSCIRCSDGSTYYADSVKGRFTISSDNAKNTVYLQMNSLKPEDTAVYYCAASIVPRSKLEPYEYDAWGQGTLVTVSS
notes: homodimeric anti-Ang2 VHH; also called 1D01-9gs-1D01

IC50 (read off the curve) [1]: ~0.04 nM
IC50 (read off the curve) [2]: ~0.1 nM
IC50 (read off the curve) [3]: ~0.08 nM
B3: 00908 (VHH)
VHH: EVQLVESGGGLVQPGGSLRLSCAASGITLDDYAIGWFRQAPGKEREGVSSIRDNGGSTYYADSVKGRFTISSDNSKNTVYLQMNSLRPEDTAVYYCAAVPAGRLRYGEQWYPIYEYDAWGQGTLVTVSS
notes: also called F009100908

binding result [7]: binds
B4: recombinant human VEGF121 (ligand, UniProt P15692-9 27-147, looked up)
chain: APMAEGGGQNHHEVVKFMDVYQRSYCHPIETLVDIFQEYPDEIEYIFKPSCVPLMRCGGCCNDEGLECVPTEESNITMQIMRIKPHQGQHIGEMSFLQHNKCECRPKKDRARQEKCDKPRR
notes: also called rhVEGF121; hVEGF121

Kd [8]: 32 nM
Binding level (RU) [9]: 242 RU
koff [9]: 0.0615 s⁻¹
B5: VEGFBII05B05 (VHH)
VHH: EVQLVESGGGLVQPGGSLRLSCVASGIRFMSMAWYRQAPGKHRELVARISSGGTTAYVDSVKGRFTISRDNSKNTVYLQMNSLKAEDTAVYYCNTFSSRPNPWGAGTQVTVSS
notes: also called VEGFBII5B05; VEGFBII5B05(wt)

Kd [8]: 44 nM
B6: VEGFBII032 (VHH)
VHH: EVQLVESGGGLVQPGGSLRLSCAASGIRFISMAWYRQAPGKQRELVARISSGGTTAYADSVKGRFTISRDNSKNTVYLQMNSLRAEDTAVYYCNTFSSRPNPWGQGTLVTVSS
notes: also called VEGFBII0032

IC50 (read off the curve) [10]: ~0.1 nM
B7: 7G08 (VHH)
VHH: EVQLVESGGGLVQPGGSLRLSCAASGFALDYYAIGWFRQVPGKEREGVSCISSSDGITYYVDSVKGRFTISRDNAKNTVYLQMNSLKPEDTAVYYCATDSGGYIDYDCMGLGYDYWGQGTQVTVSS
